The RNAGym collection of RNA variant scans (doi:10.1093/molbev/msab373)

B1: Azoarcus group I ribozyme (parent)
chain: GUGCCUUGCGCCGGGAAACCACGCAAGGGAUGGUGUCAAAUUCGGCGAAACCUAAGCGCCCGCCCGGGCGUAUGGCAACGCCGAGCCAAGCUUCGGCGCCUGCGCCGAUGAAGGUGUAGAGACUAGACGGCACCCACCUAAGGCAAACGCUAUGGUGAAGGCAUAGUCCAGGGAGUGGCGAAAGUCACACAAACCGG

Variants of: B1
Experiment: reverse-splicing fitness (ratio to wild type); higher = more active; in vitro selection; Mg2+ level not given
Summary of the method: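 An in vitro group I ribozyme library with randomized positions was T7-transcribed and gel-purified. In triplicate, 10 pmol RNA in EPPS pH 7.5 was reacted with 50 pmoles of a 30-nt RNA substrate for 1 h at 37 °C across several added MgCl2 levels (1–48 mM), then stopped with EDTA. Products were reverse transcribed from a substrate-complementary primer, PCR-amplified and sequenced (HiSeq 4000). Fitness is a variant's read proportion after selection over that before, normalised to wild type.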

Variant | reverse-splicing fitness
GUGCCUUGCGCCGGGAAACCACGCAAGGGAUGGUGUCAAAUUCGGCGAAACCUAAGCGCCCGCCCGGGCGUAUGGCAACGCGGAGCCAAGCUUCGGCGCCUGCGCCGAUGAAGGUGUAGGGACUAGACGGCACCCACCUAAGGCAAACGCUAUGGUGAAGGCAUAGUCCAGGGAGAGGCGAAAGUCACACAAACCGG [C82G A120G U176A] | 0.0149
GUGCCUUGCGCCGGGAAACCACGCAAGGGAUGGUGUCAAAUUCGGCGAAACCUAAGCGCCCGCCCGGGCGUAUGGCAACGCGGAGCCAAGCUUCGGCGCCUGCGCCGAUGAAGGUGUAGGGACUAGACGGCACCCACCUAAGGCAAACGCUAUGGUGAAGGCAUAGUCCAGGGAGCGGCGAAAGUCACACAAACCGG [C82G A120G U176C] | 0.0208
GUGCCUUGCGCCGGGAAACCACGCAAGGGAUGGUGUCAAAUUCGGCGAAACCUAAGCGCCCGCCCGGGCGUAUGGCAACGCGGAGCCAAGCUUCGGCGCCUGCGCCGAUGAAGGUGUAGGGACUAGACGGCACCCACCUAAGGCAAACGCUAUGGUGAAGGCAUAGUCCAGGGAGGGGCGAAAGUCACACAAACCGG [C82G A120G U176G] | 0.00803
GUGCCUUGCGCCGGGAAACCACGCAAGGGAUGGUGUCAAAUUCGGCGAAACCUAAGCGCCCGCCCGGGCGUAUGGCAACGCGGAGCCAAGCUUCGGCGCCUGCGCCGAUGAAGGUGUAGUGACUAGACGGCACCCACCUAAGGCAAACGCUAUGGUGAAGGCAUAGUCCAGGGAGUGGCGAAAGUCACACAAACCGG [C82G A120U] | 0.251
GUGCCUUGCGCCGGGAAACCACGCAAGGGAUGGUGUCAAAUUCGGCGAAACCUAAGCGCCCGCCCGGGCGUAUGGCAACGCGGAGCCAAGCUUCGGCGCCUGCGCCGAUGAAGGUGUAGUGACUAGACGGCACCCACCUAAGGCCAACGCUAUGGUGAAGGCAUAGUCCAGGGAGUGGCGAAAGUCACACAAACCGG [C82G A120U A145C] | 0.204
GUGCCUUGCGCCGGGAAACCACGCAAGGGAUGGUGUCAAAUUCGGCGAAACCUAAGCGCCCGCCCGGGCGUAUGGCAACGCGGAGCCAAGCUUCGGCGCCUGCGCCGAUGAAGGUGUAGUGACUAGACGGCACCCACCUAAGGCCAACGAUAUGGUGAAGGCAUAGUCCAGGGAGUGGCGAAAGUCACACAAACCGG [C82G A120U A145C C150A] | 0.00856
GUGCCUUGCGCCGGGAAACCACGCAAGGGAUGGUGUCAAAUUCGGCGAAACCUAAGCGCCCGCCCGGGCGUAUGGCAACGCGGAGCCAAGCUUCGGCGCCUGCGCCGAUGAAGGUGUAGUGACUAGACGGCACCCACCUAAGGCCAACGAUAUGGUGAAGGCAUAGUCAAGGGAGUGGCGAAAGUCACACAAACCGG [C82G A120U A145C C150A C169A] | 0.00159
GUGCCUUGCGCCGGGAAACCACGCAAGGGAUGGUGUCAAAUUCGGCGAAACCUAAGCGCCCGCCCGGGCGUAUGGCAACGCGGAGCCAAGCUUCGGCGCCUGCGCCGAUGAAGGUGUAGUGACUAGACGGCACCCACCUAAGGCCAACGAUAUGGUGAAGGCAUAGUCAAGGGAGAGGCGAAAGUCACACAAACCGG [C82G A120U A145C C150A C169A U176A] | 0.0017
GUGCCUUGCGCCGGGAAACCACGCAAGGGAUGGUGUCAAAUUCGGCGAAACCUAAGCGCCCGCCCGGGCGUAUGGCAACGCGGAGCCAAGCUUCGGCGCCUGCGCCGAUGAAGGUGUAGUGACUAGACGGCACCCACCUAAGGCCAACGAUAUGGUGAAGGCAUAGUCAAGGGAGCGGCGAAAGUCACACAAACCGG [C82G A120U A145C C150A C169A U176C] | 0.00208
GUGCCUUGCGCCGGGAAACCACGCAAGGGAUGGUGUCAAAUUCGGCGAAACCUAAGCGCCCGCCCGGGCGUAUGGCAACGCGGAGCCAAGCUUCGGCGCCUGCGCCGAUGAAGGUGUAGUGACUAGACGGCACCCACCUAAGGCCAACGAUAUGGUGAAGGCAUAGUCAAGGGAGGGGCGAAAGUCACACAAACCGG [C82G A120U A145C C150A C169A U176G] | 0.00157
GUGCCUUGCGCCGGGAAACCACGCAAGGGAUGGUGUCAAAUUCGGCGAAACCUAAGCGCCCGCCCGGGCGUAUGGCAACGCGGAGCCAAGCUUCGGCGCCUGCGCCGAUGAAGGUGUAGUGACUAGACGGCACCCACCUAAGGCCAACGAUAUGGUGAAGGCAUAGUCGAGGGAGUGGCGAAAGUCACACAAACCGG [C82G A120U A145C C150A C169G] | 0.00199
GUGCCUUGCGCCGGGAAACCACGCAAGGGAUGGUGUCAAAUUCGGCGAAACCUAAGCGCCCGCCCGGGCGUAUGGCAACGCGGAGCCAAGCUUCGGCGCCUGCGCCGAUGAAGGUGUAGUGACUAGACGGCACCCACCUAAGGCCAACGAUAUGGUGAAGGCAUAGUCGAGGGAGAGGCGAAAGUCACACAAACCGG [C82G A120U A145C C150A C169G U176A] | 0.0023
GUGCCUUGCGCCGGGAAACCACGCAAGGGAUGGUGUCAAAUUCGGCGAAACCUAAGCGCCCGCCCGGGCGUAUGGCAACGCGGAGCCAAGCUUCGGCGCCUGCGCCGAUGAAGGUGUAGUGACUAGACGGCACCCACCUAAGGCCAACGAUAUGGUGAAGGCAUAGUCGAGGGAGCGGCGAAAGUCACACAAACCGG [C82G A120U A145C C150A C169G U176C] | 0.00207
GUGCCUUGCGCCGGGAAACCACGCAAGGGAUGGUGUCAAAUUCGGCGAAACCUAAGCGCCCGCCCGGGCGUAUGGCAACGCGGAGCCAAGCUUCGGCGCCUGCGCCGAUGAAGGUGUAGUGACUAGACGGCACCCACCUAAGGCCAACGAUAUGGUGAAGGCAUAGUCGAGGGAGGGGCGAAAGUCACACAAACCGG [C82G A120U A145C C150A C169G U176G] | 0.00136
GUGCCUUGCGCCGGGAAACCACGCAAGGGAUGGUGUCAAAUUCGGCGAAACCUAAGCGCCCGCCCGGGCGUAUGGCAACGCGGAGCCAAGCUUCGGCGCCUGCGCCGAUGAAGGUGUAGUGACUAGACGGCACCCACCUAAGGCCAACGAUAUGGUGAAGGCAUAGUCUAGGGAGUGGCGAAAGUCACACAAACCGG [C82G A120U A145C C150A C169U] | 0.00213
